Measurements from paper PMC12814185, “Receptor-Mediated Shuttling of a D‑Amino Acid Peptide Achieves High Nanomolar Cytosolic Concentrations” (Journal of the American Chemical Society, 2025).

Molecular target: recombinant human GST-MDM2 (human) (UniProt Q00987)
Assay: fluorescence polarisation

Chain of recombinant human GST-MDM2 (human) (Q00987 whole entry): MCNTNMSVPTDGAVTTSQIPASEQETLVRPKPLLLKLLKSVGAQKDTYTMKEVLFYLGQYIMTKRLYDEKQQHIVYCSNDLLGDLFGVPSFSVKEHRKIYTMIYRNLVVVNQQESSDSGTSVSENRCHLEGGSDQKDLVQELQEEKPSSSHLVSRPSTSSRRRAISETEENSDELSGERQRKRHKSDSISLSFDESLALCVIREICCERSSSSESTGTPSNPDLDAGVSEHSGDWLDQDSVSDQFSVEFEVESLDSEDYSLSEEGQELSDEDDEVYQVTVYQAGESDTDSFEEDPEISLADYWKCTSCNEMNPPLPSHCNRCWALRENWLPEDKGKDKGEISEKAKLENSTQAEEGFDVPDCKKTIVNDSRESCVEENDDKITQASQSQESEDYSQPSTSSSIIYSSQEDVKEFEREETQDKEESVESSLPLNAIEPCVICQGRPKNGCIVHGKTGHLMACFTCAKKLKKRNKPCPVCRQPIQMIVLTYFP

Kd: 57 nM
Substance: Cy5-r9-PMIγ (peptide)
